From patent US20250223342A1 (ARGENX, published 2025)

Experiments:
human serum albumin [1] = molecular target: T1, human serum albumin (human, UniProt P02768 25-609); assay: SPR (Biacore), VHH clone, pH 5.5
T1 construct: also called HSA

human serum albumin [2] = molecular target: T1, human serum albumin; assay: SPR (Biacore), VHH clone, pH 7.4
human serum albumin [3] = molecular target: T1, human serum albumin; assay: SPR (Biacore), off-rate pH 7.4 over pH 5.5
[4] = molecular target: T2, isolated DII of serum albumin (UniProt P02768 211-403, limits assumed); assay: DII binder column of the clone screening
T2 construct: domain: DII

[5] = molecular target: T3, cynomolgus monkey serum albumin (cynomolgus monkey, UniProt A2V9Z4 25-608); assay: species reactivity, screening by ELISA and Biacore
T3 construct: also called cyno albumin; CSA

[6] = molecular target: T3, cynomolgus monkey serum albumin; assay: SPR (Biacore 3000), albumin on chip, Fc-ABDEG fusion
human serum albumin [7] = molecular target: T1, human serum albumin; assay: SPR (Biacore 3000), HSA on chip, Fc-ABDEG fusion, ratio of R0
[8] = molecular target: T3, cynomolgus monkey serum albumin; assay: SPR (Biacore 3000), cyno albumin on chip, Fc-ABDEG fusion, pH 5.5
human serum albumin [9] = molecular target: T1, human serum albumin; assay: SPR (Biacore 3000), HSA on chip, Fc-ABDEG fusion, pH 5.5
human serum albumin [10] = molecular target: T1, human serum albumin; assay: SPR (Biacore 3000), HSA on chip, Fc-ABDEG fusion, pH 7.4
[11] = molecular target: T3, cynomolgus monkey serum albumin; assay: SPR (Biacore 3000), cyno albumin on chip, Fc-ABDEG fusion, ratio of R0
[12] = molecular target: T3, cynomolgus monkey serum albumin; assay: SPR (Biacore 3000), cyno albumin on chip, Fc-ABDEG fusion, pH 7.4

B1: 2H11 (VHH)
VHH: ELQVVESGGGLVQAGGSLRLSCAASGRTFRSNTMGWFRQAPGKEREFVAAITWSGGTTYYADSVKGRFAISGDNAKNTVYLQMNSLKPEDTAVYYCAAEGPKWEPWNGIYHPADFGSWGQGTQVTVSS
notes: also called 2H11 parental (VHH)
Kd (human serum albumin [1]): 0.00684 µM
koff (human serum albumin [1]): 0.00063 s⁻¹
koff (human serum albumin [2]): 0.052 s⁻¹
Ratio Kd (human serum albumin [3]): 81.9

B2: 1E04 (VHH)
VHH: QLQLVESGGGLVQTGGSLRLSCAASGRTFSNYNAGWFRQVPGKEPEFVAAINWSGGTTYYADSVKGRFTISRDNAKNTVYLQMNSLKPEDTAVYYCAADPDWSILNPREYDYWGQGTRVTVSS
Kd (human serum albumin [1]): 0.0552 µM
koff (human serum albumin [1]): 0.0026 s⁻¹
koff (human serum albumin [2]): 0.0054 s⁻¹
Ratio Kd (human serum albumin [3]): 2.1
binding result [4]: no binding
binding result [5]: binds

B3: 2C10 (VHH)
VHH: QLQLVESGGGLVQAGGSLRLSCAASGRTFSSYAMGWFRQAPGKEREFVAVISWSGGSTYYADSVKGRFTISGDNAKNTVYLQMNSLKPEDTAVYYCATEGPKWEPYNGIYSPADFGSWGQGTQVTVSS
Kd (human serum albumin [1]): 0.0493 µM
koff (human serum albumin [1]): 0.0045 s⁻¹
koff (human serum albumin [2]): 0.0056 s⁻¹
Ratio Kd (human serum albumin [3]): 1.3
binding result [4]: no binding

B4: 2H11-v8 fused at the C-terminus of Fc-ABDEG (two-armed Fc-ABDEG-20GS-Cterm fusion) (Fc fusion, not shown: a dimerising Fc or GST; small tags and cut ends)
VHH: ELQVVESGGGLVQAGGSLRLSCAASGRTFRSNTMGWFRQAPGKEREFVAAITWSGGTTYYADSVKGRFAISGDNAKNTVYLQMNSLKPEDTAVYYCAAEGPKWEPANGIYHPADFGSWGQGTQVTVSS
binding result [6]: no binding

B5: 2H11-v3 fused at the C-terminus of Fc-ABDEG (two-armed Fc-ABDEG-20GS-Cterm fusion) (Fc fusion, not shown: a dimerising Fc or GST; large carriers; small tags and cut ends)
VHH: ELQVVESGGGLVQAGGSLRLSCAASGRTFRSNTMGWFRQAPGKEREFVAAITWSGGTTYYADSVKGRFAISGDNAKNTVYLQMNSLKPEDTAVYYCAAEGAKWEPWNGIYHPADFGSWGQGTQVTVSS
binding result [6]: no binding

B6: 11C03 CDR1-V2 fused at the C-terminus of Fc-ABDEG (Fc fusion, not shown: a dimerising Fc or GST; small tags and cut ends)
chain: QLQVVESGGGLVQAGGSLRLSCAASERTFVAAPMGWFRQAPEKEREFVAGISWFAGATTDYADSVEGRFTISRDNAKNTAYLQMNNLKPEDTAVYYCAISHQLPGGRPGRDMDSYSYWGHGTQVTVSS
R0 5.5/7.4 (human serum albumin [7]): 19
R0 pH 5.5 [8]: 37.8 RU
R0 pH 5.5 (human serum albumin [9]): 108 RU
R0 pH 7.4 (human serum albumin [10]): 5.82 RU
R0 5.5/7.4 [11]: 17.9
R0 pH 7.4 [12]: 2.11 RU

B7: 11C03 CDR2-V12 fused at the C-terminus of Fc-ABDEG (Fc fusion, not shown: a dimerising Fc or GST; small tags and cut ends)
chain: QLQVVESGGGLVQAGGSLRLSCAASERTFVAYPMGWFRQAPEKEREFVAGISWFAGATTDAADSVEGRFTISRDNAKNTAYLQMNNLKPEDTAVYYCAISHQLPGGRPGRDMDSYSYWGHGTQVTVSS
R0 5.5/7.4 (human serum albumin [7]): 26
R0 pH 5.5 [8]: 26 RU
R0 pH 5.5 (human serum albumin [9]): 38.7 RU
R0 pH 7.4 (human serum albumin [10]): 1.5 RU
R0 5.5/7.4 [11]: 19.3
R0 pH 7.4 [12]: 1.35 RU

B8: 11C03 CDR2-V7 fused at the C-terminus of Fc-ABDEG (Fc fusion, not shown: a dimerising Fc or GST; small tags and cut ends)
chain: QLQVVESGGGLVQAGGSLRLSCAASERTFVAYPMGWFRQAPEKEREFVAGISWFAAATTDYADSVEGRFTISRDNAKNTAYLQMNNLKPEDTAVYYCAISHQLPGGRPGRDMDSYSYWGHGTQVTVSS
R0 5.5/7.4 (human serum albumin [7]): 4
R0 pH 5.5 [8]: 0 RU
R0 pH 5.5 (human serum albumin [9]): 4.57 RU
R0 pH 7.4 (human serum albumin [10]): 1.12 RU
R0 pH 7.4 [12]: 1.09 RU

B9: 11C03 CDR2-V10 fused at the C-terminus of Fc-ABDEG (Fc fusion, not shown: a dimerising Fc or GST; small tags and cut ends)
chain: QLQVVESGGGLVQAGGSLRLSCAASERTFVAYPMGWFRQAPEKEREFVAGISWFAGATADYADSVEGRFTISRDNAKNTAYLQMNNLKPEDTAVYYCAISHQLPGGRPGRDMDSYSYWGHGTQVTVSS
R0 5.5/7.4 (human serum albumin [7]): 16
R0 pH 5.5 [8]: 105 RU
R0 pH 5.5 (human serum albumin [9]): 136 RU
R0 pH 7.4 (human serum albumin [10]): 8.6 RU
R0 5.5/7.4 [11]: 18.6
R0 pH 7.4 [12]: 5.65 RU

B10: 11C03 CDR2-V2 fused at the C-terminus of Fc-ABDEG (Fc fusion, not shown: a dimerising Fc or GST; small tags and cut ends)
chain: QLQVVESGGGLVQAGGSLRLSCAASERTFVAYPMGWFRQAPEKEREFVAGASWFAGATTDYADSVEGRFTISRDNAKNTAYLQMNNLKPEDTAVYYCAISHQLPGGRPGRDMDSYSYWGHGTQVTVSS
R0 5.5/7.4 (human serum albumin [7]): 12
R0 pH 5.5 [8]: 5.22 RU
R0 pH 5.5 (human serum albumin [9]): 15.1 RU
R0 pH 7.4 (human serum albumin [10]): 1.22 RU
R0 5.5/7.4 [11]: 4.35
R0 pH 7.4 [12]: 1.2 RU

B11: 11C03 CDR2-V3 fused at the C-terminus of Fc-ABDEG (Fc fusion, not shown: a dimerising Fc or GST; small tags and cut ends)
chain: QLQVVESGGGLVQAGGSLRLSCAASERTFVAYPMGWFRQAPEKEREFVAGIAWFAGATTDYADSVEGRFTISRDNAKNTAYLQMNNLKPEDTAVYYCAISHQLPGGRPGRDMDSYSYWGHGTQVTVSS
R0 5.5/7.4 (human serum albumin [7]): 28
R0 pH 5.5 [8]: 54.2 RU
R0 pH 5.5 (human serum albumin [9]): 68.5 RU
R0 pH 7.4 (human serum albumin [10]): 2.4 RU
R0 5.5/7.4 [11]: 20.8
R0 pH 7.4 [12]: 2.6 RU

B12: 11C03 CDR1-V3 fused at the C-terminus of Fc-ABDEG (Fc fusion, not shown: a dimerising Fc or GST; small tags and cut ends)
chain: QLQVVESGGGLVQAGGSLRLSCAASERTFVAYAMGWFRQAPEKEREFVAGISWFAGATTDYADSVEGRFTISRDNAKNTAYLQMNNLKPEDTAVYYCAISHQLPGGRPGRDMDSYSYWGHGTQVTVSS
R0 5.5/7.4 (human serum albumin [7]): 21
R0 pH 5.5 [8]: 103 RU
R0 pH 5.5 (human serum albumin [9]): 109 RU
R0 pH 7.4 (human serum albumin [10]): 5.1 RU
R0 5.5/7.4 [11]: 19.8
R0 pH 7.4 [12]: 5.2 RU

B13: 11C03 CDR2-V5 fused at the C-terminus of Fc-ABDEG (Fc fusion, not shown: a dimerising Fc or GST; small tags and cut ends)
chain: QLQVVESGGGLVQAGGSLRLSCAASERTFVAYPMGWFRQAPEKEREFVAGISWAAGATTDYADSVEGRFTISRDNAKNTAYLQMNNLKPEDTAVYYCAISHQLPGGRPGRDMDSYSYWGHGTQVTVSS
R0 5.5/7.4 (human serum albumin [7]): 12
R0 pH 5.5 [8]: 0 RU
R0 pH 5.5 (human serum albumin [9]): 12.3 RU
R0 pH 7.4 (human serum albumin [10]): 1.06 RU
R0 pH 7.4 [12]: 1.1 RU

B14: 11C03 CDR2-V4 fused at the C-terminus of Fc-ABDEG (Fc fusion, not shown: a dimerising Fc or GST; small tags and cut ends)
chain: QLQVVESGGGLVQAGGSLRLSCAASERTFVAYPMGWFRQAPEKEREFVAGISAFAGATTDYADSVEGRFTISRDNAKNTAYLQMNNLKPEDTAVYYCAISHQLPGGRPGRDMDSYSYWGHGTQVTVSS
R0 5.5/7.4 (human serum albumin [7]): 15
R0 pH 5.5 [8]: 0 RU
R0 pH 5.5 (human serum albumin [9]): 12.3 RU
R0 pH 7.4 (human serum albumin [10]): 0.826 RU
R0 pH 7.4 [12]: 2.77 RU

B15: 2A10 (VHH)
VHH: EVQLVESGGGLVQAGGSLRLSCAASGRTFSSYAMGWFRQAPGKEREFVATINWSGGSTYYADSVKGRFTISRDNAKNTVYLQMNSLKPEDTAVYYCAADLYGPGFVLSMEYDYWGQGTQVTVSS
Kd (human serum albumin [1]): 0.0969 µM
koff (human serum albumin [1]): 0.0034 s⁻¹
koff (human serum albumin [2]): 0.011 s⁻¹
Ratio Kd (human serum albumin [3]): 3.3
binding result [4]: no binding
binding result [5]: binds

B16: 4G12 (VHH)
VHH: QLQLVESGGGLVQAGGSLRLSCVASGRSFSTYGMGWFRQAPGAEREFAAAINWKGDRYYADSVKGRFTISRDNAKNTVFLEMNSLKPEDTGVYYCAADSDGSAFSRRLEYDYWGQGTQVTVSS
Kd (human serum albumin [1]): 0.0124 µM
koff (human serum albumin [1]): 0.0019 s⁻¹
koff (human serum albumin [2]): 0.0033 s⁻¹
Ratio Kd (human serum albumin [3]): 1.8
binding result [4]: no binding
binding result [5]: binds

B17: 2B03 (VHH)
VHH: QLQLVESGGGLVQAGGSLRLSCAASGRAISSYVMAWFRQAPGKEREFVTSINWSGGSTYYAHSVKGRFTISRDNAKNTVYLQMNTLKPEDTAVYYCAADLYGLGYEVMSYDYWGQGTQVTVSS
Kd (human serum albumin [1]): 0.0166 µM
koff (human serum albumin [1]): 0.0029 s⁻¹
koff (human serum albumin [2]): 0.025 s⁻¹
Ratio Kd (human serum albumin [3]): 8.7
binding result [4]: no binding
binding result [5]: binds
